Assay results taken from patent publication US20170260282A1 (Janssen / Centocor, published 2017).

T1: Human GITR (cell surface) (human, UniProt Q9Y5U5 26-241)
T1 construct: also called hGITR; huGITR
T1 sequence: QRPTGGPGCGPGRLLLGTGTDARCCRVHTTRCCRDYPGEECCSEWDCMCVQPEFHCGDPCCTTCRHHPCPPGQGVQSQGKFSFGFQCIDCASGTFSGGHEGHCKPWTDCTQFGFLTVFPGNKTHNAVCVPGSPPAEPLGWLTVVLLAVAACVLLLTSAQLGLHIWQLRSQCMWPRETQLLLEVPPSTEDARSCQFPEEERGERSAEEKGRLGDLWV

T2: Cyno GITR (cell surface) (cynomolgus monkey)
T2 construct: Presented on transfected or transduced HEK293 cells; also called cynomolgus monkey GITR
T2 chain: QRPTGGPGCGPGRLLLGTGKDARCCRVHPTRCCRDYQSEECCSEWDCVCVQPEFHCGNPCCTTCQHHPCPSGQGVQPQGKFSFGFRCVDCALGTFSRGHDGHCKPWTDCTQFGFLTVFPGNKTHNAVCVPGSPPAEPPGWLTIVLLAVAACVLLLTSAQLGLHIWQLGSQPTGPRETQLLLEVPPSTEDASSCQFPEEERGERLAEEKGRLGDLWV

T3: recombinant human GITR ECD (human, UniProt Q9Y5U5 26-161)
T3 construct: also called human GITR extracellular domain
T3 sequence: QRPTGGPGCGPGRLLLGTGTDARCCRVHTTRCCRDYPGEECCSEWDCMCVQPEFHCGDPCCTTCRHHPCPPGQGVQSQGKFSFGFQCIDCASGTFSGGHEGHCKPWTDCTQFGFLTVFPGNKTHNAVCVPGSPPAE

T4: cyno GITR ECD (cynomolgus monkey)
T4 construct: Only the extracellular domain stood in the SPR assay
T4 chain: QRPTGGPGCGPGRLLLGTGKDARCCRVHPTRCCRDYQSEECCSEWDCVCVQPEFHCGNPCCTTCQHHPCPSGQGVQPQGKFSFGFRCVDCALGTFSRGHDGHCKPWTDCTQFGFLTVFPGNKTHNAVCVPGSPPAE


Experiments:
[1] = target: T1, Human GITR (cell surface); experiment: flow cytometry, transiently transfected HEK293F cells, 0.1 mg/mL antibody
[2] = target: T2, Cyno GITR (cell surface); experiment: as above
[3] = target: T1, Human GITR (cell surface); experiment: cell-based or functional assay
[4] = target: T2, Cyno GITR (cell surface); experiment: cell-based or functional assay
[5] = target: T3, recombinant human GITR ECD; experiment: SPR (ProteOn XPR36), mAb captured by anti-human Fc, GITR ECD as analyte, 25 °C
Description: (§1) The affinities of the GITR antibodies to recombinant human GITR ECD were measured by Surface Plasmon Resonance (SPR) using a ProteOn XPR36 protein interaction array system (BioRad).
(§2) The rates of GITR ECD association and dissociation were measured for each variant. The biosensor surface was prepared by covalently coupling Goat anti-Human IgG (Fc) to the surface of a GLC chip (BioRad) using the manufacturer instructions for amine-coupling chemistry. Approximately 8800 RU (response units) of Goat anti-Human IgG (Fc) antibody (Jackson ImmunoResearch laboratories Prod #109-005-098) were immobilized. […] Since the mixture was 1:1 about 50% of these RU immobilized are expected to be goat anti-human Fc. The binding kinetics experiments were performed at 25° C. in running buffer (PBS pH 7.4, 0.005% P20, 3 mM EDTA). […] (1:3) serial dilutions of human GITR ECD or cyno GITR ECD starting at 100 nM were prepared in running buffer. […] The reference spots (Goat anti-Human IgG (Fc)-modified surface) containing no candidate captured were used as a reference surface. Capture of mAb was followed by 3 min injection (association phase) of antigen at 40 μL/min, followed by 10 min of buffer flow (dissociation phase). The chip surface was regenerated by injection of 0.85% phosphoric acid at 100 μL/min. Data were processed on the instrument software. Double reference subtraction of the data was performed by subtracting the curves generated by buffer injection from the reference-subtracted curves for analyte injections. Kinetic analysis of the data was performed using 1:1 Langmuir binding model with group fit. The result for each mAb was reported in the format of kon or on-rate, koff or off-rate, and KD (Equilibrium dissociation constant) (Table 7).

[6] = target: T4, cyno GITR ECD; experiment: as above
Description: as §1, §2

binding result [1]	binding result [2]	ADCC EC50, HEK293-hGITR target cells, NK-92 FcγRIIIa 176V/V effector cells [3]	Binder	other results
binds	binds	–	TRGB20 (antibody, human IgG1, kappa, V domains shown, human IgG1/kappa) VH: EVQLLESGGGLVQPGGSLRLSCAASGFTFSGYWMNWVRQAPGKGLEWVSGISSDGGSKYYADSVKGRFTISRDNSKNTLYLQMNSLRAEDTAVYYCAKEVVYDHYAALDYWGQGTLVTVSS VL: EIVLTQSPATLSLSPGERATLSCRASQSVNSFLAWYQQKPGQAPRLLIYYASNRATGIPARFSGSGSGTDFTLTISSLEPEDFAVYYCQQYIRWPLTFGQGTKVEIKR	–
binds	binds	–	TRGB14 (antibody, human IgG1, kappa, V domains shown, human IgG1/kappa) VH: not shown VL: EIVLTQSPATLSLSPGERATLSCRASQSVNNFLAWYQQKPGQAPRLLIYDASNRATGIPARFSGSGSGTDFTLTISSLEPEDFAVYYCQQGFNAPLTFGQGTKVEIKR	–
binds	binds	–	TRGB162 (antibody, human IgG1, kappa, V domains shown, human IgG1/kappa) VH: QVQLVQSGAEVKKPGSSVKVSCKASGGTFSSYAISWVRQAPGQGLEWMGGIIPIFGNANYAQKFQGRVTITADESTSTAYMELSSLRSEDTAVYYCARHVYKRGVLNYWGQGTLVTVSS VL: EIVLTQSPATLSLSPGERATLSCRASQSVSSYLAWYQQKPGQAPRLLIYDASNRATGIPARFSGSGSGTDFTLTISSLEPEDFAVYYCQQRSNWPLTFGQGTKVEIKR	–
binds	binds	–	TRGB35 (antibody, human IgG1, kappa, V domains shown, human IgG1/kappa) VH: EVQLVQSGAEVKKPGESLKISCKGSGYSFTSYWISWVRQMPGKGLEWMGIIDPGDSDTRYSPSFQGQVTISADKSISTAYLQWSSLKASDTAMYYCARHRWSTSLLLDYWGQGTLVTVSS VL: EIVLTQSPATLSLSPGERATLSCRASQSVSSYLAWYQQKPGQAPRLLIYDASNRATGIPARFSGSGSGTDFTLTISSLEPEDFAVYYCQQRSNWPLTFGQGTKVEIKR	–
binds	binds	–	TRGB5 (antibody, human IgG1, kappa, V domains shown, human IgG1/kappa) VH: EVQLLESGGGLVQPGGSLRLSCAASGFTFSGYWMSWVRQAPGKGLEWVSAISGSGGSTYYADSVKGRFTISRDNSKNTLYLQMNSLRAEDTAVYYCAKDFYWDAFDYWGQGTLVTVSS VL: EIVLTQSPATLSLSPGERATLSCRASQSVSSYLAWYQQKPGQAPRLLIYDASNRATGIPARFSGSGSGTDFTLTISSLEPEDFAVYYCQQRSNWPLTFGQGTKVEIKR	–
binds	binds	–	TRGB134 (antibody, human IgG1, kappa, V domains shown, human IgG1/kappa) VH: QVQLVQSGAEVKKPGSSVKVSCKASGGTFSSYAISWVRQAPGQGLEWMGGIIPIFGTANYAQKFQGRVTITADESTSTAYMELSSLRSEDTAVYYCARHRWGSGNLDYWGQGTLVTVSS VL: EIVLTQSPATLSLSPGERATLSCRASQSVSSYLAWYQQKPGQAPRLLIYDASNRATGIPARFSGSGSGTDFTLTISSLEPEDFAVYYCQQRSNWPLTFGQGTKVEIKR	–

Continued, binder first:

Binder	binding result [1]	binding result [2]	ADCC EC50, HEK293-hGITR target cells, NK-92 FcγRIIIa 176V/V effector cells [3]	other results
TRGB144 (antibody, human IgG1, kappa, V domains shown, human IgG1/kappa) VH: QVQLVQSGAEVKKPGSSVKVSCKASGGTFSSYAISWVRQAPGQGLEWMGGIIPIFGTANYAQKFQGRVTITADESTSTAYMELSSLRSEDTAVYYCARHGFQRGYLDYWGQGTLVTVSS VL: EIVLTQSPATLSLSPGERATLSCRASQSVSSYLAWYQQKPGQAPRLLIYDASNRATGIPARFSGSGSGTDFTLTISSLEPEDFAVYYCQQRSNWPLTFGQGTKVEIKR	binds	binds	–	–
TRGB120 (antibody, human IgG1, kappa, V domains shown, human IgG1/kappa) VH: QVQLVQSGAEVKKPGSSVKVSCKASGGTFSSYAISWVRQAPGQGLEWMGGIIPIFGTANYAQKFQGRVTITADESTSTAYMELSSLRSEDTAVYYCARPRRNTNELDYWGQGTLVTVSS VL: not shown	binds	binds	–	–
TRGB31 (antibody, human IgG1, kappa, V domains shown, human IgG1/kappa) VH: EVQLVQSGAEVKKPGESLKISCKGSGYSFTSYWIGWVRQMPGKGLEWMGIIDPSDSDTRYSPSFQGQVTISADKSISTAYLQWSSLKASDTAMYYCARVFPYYGLVLDYWGQGTLVTVSS VL: EIVLTQSPATLSLSPGERATLSCRASQSVSSYLAWYQQKPGQAPRLLIYDASNRATGIPARFSGSGSGTDFTLTISSLEPEDFAVYYCQQRSNWPLTFGQGTKVEIKR	–	binds	7.6 ng/mL	–
TRGB34 (antibody, human IgG1, kappa, V domains shown, human IgG1/kappa) VH: EVQLVQSGAEVKKPGESLKISCKGSGYSFTSYWIGWVRQMPGKGLEWMGIIYPGDSDTRYSPSFQGQVTISADKSISTAYLQWSSLKASDTAMYYCARDYGWHDFDYWGQGTLVTVSS VL: EIVLTQSPATLSLSPGERATLSCRASQSVSSYLAWYQQKPGQAPRLLIYDASNRATGIPARFSGSGSGTDFTLTISSLEPEDFAVYYCQQRSNWPLTFGQGTKVEIKR	–	binds	5.8 ng/mL	–
TRGB23 (antibody, human IgG1, kappa, V domains shown) VH: QVQLVQSGAEVKKPGSSVKVSCKASGGTFSSYAISWVRQAPGQGLEWMGGIIPIFGTANYAQKFQGRVTITADESTSTAYMELSSLRSEDTAVYYCARHGNWLHFNLDYWGQGTLVTVSS VL: EIVLTQSPATLSLSPGERATLSCRASQSVSSYLAWYQQKPGQAPRLLIYDASNRATGIPARFSGSGSGTDFTLTISSLEPEDFAVYYCQQRSNWPLTFGQGTKVEIKR	–	–	4.4 ng/mL	ADCC EC50, HEK293-cyno GITR target cells, NK-92 FcγRIIIa 176V/V effector cells [4]: 10.2 ng/mL
TRGB159 (antibody, human IgG1, kappa, V domains shown, human IgG1/kappa) VH: QVQLVQSGAEVKKPGSSVKVSCKASGGTFSSYAISWVRQAPGQGLEWMGGIIPIFGTANYAQKFQGRVTITADESTSTAYMELSSLRSEDTAVYYCARHGRNSGRLDYWGQGTLVTVSS VL: EIVLTQSPATLSLSPGERATLSCRASQSVSSYLAWYQQKPGQAPRLLIYDASNRATGIPARFSGSGSGTDFTLTISSLEPEDFAVYYCQQRSNWPLTFGQGTKVEIKR	–	–	2.9 ng/mL	ADCC EC50, HT1080-hGITR target cells, NK-92 FcγRIIIa 176V/V effector cells [3]: 6.7 ng/mL; ADCC EC50, HEK293-cyno GITR target cells, NK-92 FcγRIIIa 176V/V effector cells [4]: 25.8 ng/mL; Kd [5]: 3.04 nM; koff [5]: 0.00162 s⁻¹; kon [5]: 532000 M⁻¹ s⁻¹; Kd [6]: 10.6 nM; koff [6]: 0.00197 s⁻¹; kon [6]: 185000 M⁻¹ s⁻¹
